Assay results from paper PMC5526835.

Biological target: PCM1 (endogenous) [human (endogenous in HEK293A)]
Assay: GFP-TRAP pull-down and immunoblot, quantified
Conditions: read off a plot, scale: relative protein level normalized to ponceau

## GFP-GABARAP mutant G116A [human] / PCM1 (endogenous) [human (endogenous in HEK293A)] chain 1 G116A
EBSS (ES) for 2 hr
  response: 0.85
EBSS + BAFA (EB) for 2 hr
  response: 1.2
Full medium (FM)
  response: 1
